From patent CN106117361A come the findings set out here.

The assay deals with CD3 on Jurkat cells (Jurkat靶标细胞) (UniProt P07766). Description: flow cytometry, culture supernatant on Jurkat cells. On the technique in general: In flow cytometry, cells or beads pass a laser one at a time.
Chain of UniProt P07766 (P07766 23-207): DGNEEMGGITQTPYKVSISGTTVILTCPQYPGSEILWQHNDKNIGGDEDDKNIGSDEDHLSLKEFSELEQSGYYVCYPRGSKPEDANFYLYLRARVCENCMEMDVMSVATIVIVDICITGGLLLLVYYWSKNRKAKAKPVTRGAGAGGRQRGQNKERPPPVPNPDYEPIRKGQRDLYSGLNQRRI

B1: A30322 抗CD3单域抗体 (sdAb) (VHH, not shown: large carriers)
VHH: EVQLVECGGGLVQAGGSLRLSCAASGRTFDTMGWFRQAPGKEREFVAAVRWSSGNTYYGNTVKGRFTISRDTATNTVYLEMNSLKHEDTAVYYCAARLAGRGAADHWGQGTQVTVSS
In turn, B1 yielded a 结合MFI of 521 MFI.
